# Measured values as given in publication PMC6480712.
# T1: human dopamine D2 long receptor (D2LR) fused C-terminally to LgBiT or SmBiT of NanoLuciferase (human), P14416
# T1 chain: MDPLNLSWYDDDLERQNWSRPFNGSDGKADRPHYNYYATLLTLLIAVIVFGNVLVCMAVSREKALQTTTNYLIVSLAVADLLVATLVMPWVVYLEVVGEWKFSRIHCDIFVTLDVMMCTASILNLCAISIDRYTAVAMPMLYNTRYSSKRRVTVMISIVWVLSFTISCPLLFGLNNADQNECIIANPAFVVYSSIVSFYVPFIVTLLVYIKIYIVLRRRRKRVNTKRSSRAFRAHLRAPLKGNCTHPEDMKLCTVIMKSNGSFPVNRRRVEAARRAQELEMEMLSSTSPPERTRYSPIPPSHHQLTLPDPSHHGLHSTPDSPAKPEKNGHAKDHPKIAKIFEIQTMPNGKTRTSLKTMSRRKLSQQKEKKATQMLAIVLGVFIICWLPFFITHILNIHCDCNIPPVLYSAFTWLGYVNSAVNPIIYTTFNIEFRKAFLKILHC
# B1: human dopamine D2 long receptor (D2LR) fused C-terminally to LgBiT or SmBiT of NanoLuciferase, P14416-1 1-443 (receptor)
# chain: MDPLNLSWYDDDLERQNWSRPFNGSDGKADRPHYNYYATLLTLLIAVIVFGNVLVCMAVSREKALQTTTNYLIVSLAVADLLVATLVMPWVVYLEVVGEWKFSRIHCDIFVTLDVMMCTASILNLCAISIDRYTAVAMPMLYNTRYSSKRRVTVMISIVWVLSFTISCPLLFGLNNADQNECIIANPAFVVYSSIVSFYVPFIVTLLVYIKIYIVLRRRRKRVNTKRSSRAFRAHLRAPLKGNCTHPEDMKLCTVIMKSNGSFPVNRRRVEAARRAQELEMEMLSSTSPPERTRYSPIPPSHHQLTLPDPSHHGLHSTPDSPAKPEKNGHAKDHPKIAKIFEIQTMPNGKTRTSLKTMSRRKLSQQKEKKATQMLAIVLGVFIICWLPFFITHILNIHCDCNIPPVLYSAFTWLGYVNSAVNPIIYTTFNIEFRKAFLKILHC
# Molecular target: T1, human dopamine D2 long receptor (D2LR) …
# Test: split reporter (BiFC, NanoBiT); NanoBiT in HEK293T cells co-transfected with 400 ng D2LR–SmBiT, D2LR–LgBiT and increasing native (untagged) D2LR DNA (0–600 ng), without or with 10 µM spiperone; muscarinic M1 receptor co-transfected instead as control
# Details: remark: other sources report otherwise
binder,measurement,value
B1,fold increase of the luminescent signal with co-transfected native D2LR (4:4:6) against none,20 fold
same,"fold increase of the luminescent signal with co-transfected native D2LR (4:4:6) against none, cells treated with 10 µM spiperone",5 fold
